# The nanobody polyreactivity screen of Harvey et al. (2022)
# Experiment: yeast display, Sf9 membrane polyspecificity reagent, FACS + sequencing; frameworks hold sequencing errors
# How it was run: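 Sorting gates, low and high (top ~1%), were placed on anti-HA fluorescence to track expression and on streptavidin fluorescence to track reagent binding. A clone's polyreactivity label is taken from the gate it came out of. The reagent was 10% biotinylated, detergent-solubilized Sf9 membrane, applied for 1 hour at 4 °C to galactose-induced yeast display cells.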
row,Sequence,polyreactivity (PSR sort gate)
1,QVQLVESGGGLVQAGGSLRLSCAASGRIFKRNVMGWYRQAPGKERELVAAIRYSGGNTYYADSVKGRFTISRDNAKNTVYLQMNSLKPEDTAVYYCAAQQWSYTQSRLYDMGYWGQGTQVTVSS,high polyreactivity
2,QVQLVESGGGLVQAGGSLRLSCAASGLTFRYYAMGRNRPARGKEREVVAVITTSTGTTYYADSVKGRFTISRDNAKNTVYLQMNSLKPEDTPVYYCATDTGAYLYSMYDYWGQVTQVTVSS,low polyreactivity
3,QVQLVESGGGLVQAGGSLRLSCAASGFIYDYAMGWYRQAPGKQREFVARINWSGGSTYYADSVKGRFTISRDNAKNTVYLQMNSLKPEDTAVYYCATSGWAWRTSNPYEYWGQGTQVTVSS,low polyreactivity
4,QVQLVESGGGLVQAGGSLRLSCAASGFIFEGYAMGWYRQAPGKERELVAAISRGGGSTYYADSVKGRFTISRDNAKNTVYLQMNSLKPEDTAVYSCATGGYYHYTGVKMYYWGQGTQVTVSS,high polyreactivity
5,QVQLVESGGGLVQAGGSLRLSCAASGYIFKTYDMGWYRQAPGKETELVAAITASGGSTSYADSVKGRFTISRDNAKNTVYLQMNSLKPEDTAVYYCAAVYVRFKAERGVYLYPYDYWGQGTQVTVSS,high polyreactivity
6,QVQLVESGGGLVQAGGSLRLSCAASGRTFGRYAMGWYRQAPGKAREFVAAISSSGGSTSYADSVKGRFTISRDNAKNTVYLQMNSLKPEDTAVYYCNADAYRITRYGYDYWGQGTQVTVSS,high polyreactivity
7,QVKLVESGGGLVQAGGSLSLSCDASGFISVQNALGCYRQAPGKERELVASITSDGSTYYADSVKGRFTISRDNAKNTVYLQMTSLKPEDTAVYDCAKVNNSYSGFTTTLEYWGQGTQVTVSS,low polyreactivity
8,QVQLVESGGGLVQAGGSLRLSCAASGRTFWYYAMGWYRQAPGKERELVASISRSGGSTYYADSVKGRFTISRDNAKNTVYLQMNSLKPEDTAVYYCARGSELGYYAWVYYWGQGTQVTVSS,high polyreactivity
9,QVQLVESGGGLVQAGGSLRLSCAASGRIFEFYAMGWYRQAPGKERELVAAISFSGTSTYYADSVKGRFTISRDNAKNTVYLQMNSLKPEDTAVYYCAVRGVGADYDYWGQGTQVTVSS,low polyreactivity
10,QVQLVESGGGLVQAGGSLRLSCAASGRTFYGYAMGWSRPAPGKERELVAAISTGGSTSYADSVKGRFTISRDNAKNTVYLQMNSLKPEDTAVYYCAAVYYLTDWYGVWYSFDYWGQGTQVTVSS,low polyreactivity
11,QVQLVESGGGLVQAGGSLRLSCAASGSIFNYNAMGWYRQAPGKERELVAGITTSGGSTYYADSVKGRFTISRDNAKNTVYLQMNSLKPEDTAVYYCAAYDYISSTYFLDDYWGQGTQVTVSS,low polyreactivity
12,QVQLVESGGGLVQAGGSLRLSCDASGFIFGYYAMGWYRHAPGKERELVAAISRGDTSTYYADSVKGRFTISRDNAKNTVYLQMYSLKPEDTAVYYCAADWTGYGYYYWGQGTQVTVSS,low polyreactivity
13,QVQLKESVGGLVQAGGILRLSCAASGNIFPTDRMAWYRQAPGTELEFVATISHGGSTNYADSVKGRFTISRDNSKNTLYLQMNSLKPEDTAVYYWWGWSLGRWRHYYWGQGTQVTVSS,low polyreactivity
14,QVQLVESGGRLVQAGGSLRISCAASGNTFVRYAMGWYRQAPGKQSELVASISTSGGSTYYADSVKGRFTISRDNAKNTVYLQMNSLKPQDTAVYYCAARLPRTRYWEDFWGQGTQVSVSS,high polyreactivity
15,QVQLVESGGGLVQAGGSLRISCAASGRTFWKYVRGWYRQAPGKERELVAVISRPAGSTYYADSVKGRFTISRDNAKNTVYLQMNSLKPEDTAVYYCAKRPKNKPVLGDYDHWGQGTQVTVSS,low polyreactivity
16,QVQLVESGGGLVQAGGSLRLSCAASGSTFAGNAMGWSRQAPGKERELVAGITSSGARTYYADSVKGRFTISRDNAKNTVYLQMNSLKPEDTAVYYCNKYHFSPYDYWGQGTQVTVSS,high polyreactivity
17,QVQLVESGGGLVQAGGSLRLSCAASGSIFIDNAMGWDRQAPGKEREFVAAISKSGTSTYYADSVKGRFTISRDNAKNTVYLQMNSLKPEDTAVYYCAVRRPRPYSNYYYWGQGTQVTVSS,high polyreactivity
18,QVLLVESGGGLVQAGGSLRLSCAPSGRTVDSYAMGWYRQAPGKETELVAAIDWGGGTTYYADSVKGRFRISRDNAKNSVYLQMNSLKPEDTAVYYCAAGDVWIAPYDSWGQGTQVTVSS,low polyreactivity
19,QVQLVESGVGLVQAGGSLRLSCAASGSIFPGYAMGWYRQAPGKEMELVAGITWSDARTYYADSVKVRFTISRDNAKNTVYLQMNSLKPEDTAVYYCAADYYYYERDYWGQGTQVTVSS,low polyreactivity
20,QVQLVESGGGLVQAGGSLRLSCAASGRTFIWNAMGWYRQAPGKERELVADISIRGGSTNYADSVKGRFTISRDNAKNTVYLQMNSLKPEDTAVYYCAADYYDSGNDYWGQGTQVTVSS,low polyreactivity
21,QVQLVESGGGLVQAGGSLRLSCAASGSTLYKYAMGWYRQAPGKERELVAAISWSGSSTYYADSVKGRFTISRDNAKNTVYLQMNSLKPEDTAVYYCAAYPRPYIGYTDGYVWYEFDYWGQGTQVTVSS,low polyreactivity
22,QVQLVDSGGGLVQAGGSLRLSCAPSGSTFGYNAMGWYRQAPGKERELVAAITWSGGSTYYADSVKGRFTISRDNAKNTVYLQMNSLKPEDTAVYYCAADDWYNSKWHYYSWGQGTQLTVSS,low polyreactivity

row,Sequence,polyreactivity (PSR sort gate)
1,QVQLVETGGGLVQAGGSLRLSCAASGGIFEINVMGWYRQAPGKERELVAGINWSGTSTYFADSVKGRFTISRDNAKNTVYLQMNTLTPEDTSVYYCAAESYYRYVVPYDYWGQGTQVTVSS,high polyreactivity
2,QVQLVESGGGLVQAGGSLRLSCAASGNTLAANAMGWYRQAPGKERELVAAITYSGGSTYYADSVKGRFTISRDNAKNTVYLQMSSLKPEDTAVYDCNAPYVFSAGFDYWGQGTQVTVSS,low polyreactivity
3,QVQLVESGGGLVQAGGSLSLSFAASGRTFGYYDMGRYRQAPGKEREFVAAITWSGGNTYADSVKGRFTISRDNAKNTVYLQMNSLKPEDTAVYYCNAVVRAYYTSIWVPRYDYWGQATQVTVSS,high polyreactivity
4,QVQLVESGGGLVQAGGRLRLSCAASGNTFYLNAIGWYRQAPGKERELVAAITIRGDSTYYADSVKGRFTISRDNAKNTVYLQMISLKPEDTAVYSCAAPWAWNTGYRVYYGGQGTQVTVSS,high polyreactivity
5,QVQLVESGGGLVQAGGSLRLSCAASGRTFWSYAMGWYRQAPGKEREFVAAISRRGGITYYADSVKGRFTISRDNAKNTVYLQMNSLKPEDTAVYYCAKGAQSYYGGQVKYDYWGQGTQVTVSS,high polyreactivity
6,QVQLVETGGGLVQAGGSLRLSCAPSGFTFRRNAMGWYRQAPGKERELVAVITSSARTNYADSVKGRFTISRDNAKNTVYLQMNSLKPEDTAVYYCAARYHYGVWRERHGYWGQGTQVTVSS,high polyreactivity
7,QVQLVESGGGLVQAGGSHRLSCAASGSTIAGNAMGWYRQAPGKERELVAVITRGGSTNYADSVKGRFTISRDNAKNTVYLQLNSLKPEDTAVYYCARYRFLLDYWGGGYYWGQGTQVTVSS,high polyreactivity
8,QVQLVESGGGLVQAGGSLRLSCAASGFIFRTYAMGWYRQAPGKERELVAAISGTTGSTYYADSVKGRFTISRDNAKYTVYLQMNSLKPEDTAVYFCAADYYWYIRYDYWGQGTQVTVSS,low polyreactivity
9,QVQLVESGGGLVQAGGSLRLSCAASGRTFGRYTMGWYRQAPGKERELVADITSGWSTYADSVKGRFTISRDNAKNSVYLQMNSLKPEDTAVYYCNADRTYPEPAEYYYWGQGTQVTVSS,low polyreactivity
10,QGQLVESGGGLVQAGGSLRLSCAASGRIFVTYAMGWYRQAPGKERELVATINSGGSTYYADSVKGRFTISRDNAKNTVYLQMNSLKPEDTAVYYCNTDFGQAHTLSWYEDMDYWGQGTQVTVSS,low polyreactivity
11,QVQLVESGGGLVQAGGSLRLSCAASGIIFGGYAMGWYRQAPGKERELVARITSGGSTNYADSVKGRFTISRDNAKNTVYLQMNSLKPEDTAVYYCAARSFWKWGYYYWGQGTQVTVSS,high polyreactivity
12,QVHLVESGGVLVQAGGSLRLSCAAYGSTFSWNAMGWYRQSPWKESELVAPITTRGGSTYYADSVKGRFTISRDNAQNTVYLEMNSLKPEDTAVYDCAASYGYRGGWGPGVDYWGQCTQVTVSS,low polyreactivity
13,QVQLVESGGGLVQAGGSLRLSCAASGIFRGYAMGWYRQAPGKERELVAAISWGGGSTYYADSVKGRFTISRDNAKNTVYLQMNSLKPEDTAVYYCIAADFGWDYAYYYWGQGTQVTVSS,low polyreactivity
14,QVQLVESGGGLVQAGGSLRISCAASGSTFSYYAMGWYRQAPGKERELVAAISSRGGSTYYADSVKGRFTISRDNAKNTVYLQMNSLKPEDTAVYYCAAVRNRHGYDYWGQGTQVTVSS,high polyreactivity
15,QVQLVESGGGLVQAGGSLRLSCAASGSTFYRNAMGWYRQAPGKEREFVAAISFRGGGTYADSVKGRFTISRDNAKNTVYFQMNILKPEDTAVYYCAADLLSYRGRYEYWGQGTQVTVSS,low polyreactivity
16,QVQLVESGGGLVQAGGSLRLSCAASGRIFKYNAMGWYRQAPGKERELVAAISGGGSTNYADSVKGRFTISRDNAKNTVYLQMNSLKPEDTAVYYCAKGYRRVYGPFYYWGQGTQVTVSS,low polyreactivity
17,EVQHVESGGGLVQAGGSLRLSCAASGSTFYENAMGWYRQAPGKERELVAAINWSGGRTYYADSVKGRFTISRDNAKNTVNLQMNCLKQEYTAVYYCATREYRYAHSYYWGQGTQVTVSS,high polyreactivity
18,QVQIVESGGGLVQAGGSLRLSCAASGRNFGANAMGWYRQAPGKERELVASISSSGSRTYYAVSVKGRFTISRDNAKNTVSLQMNSLKPEDSAVYYCAARYWIYRSEYDYWGQGTQVTVSS,high polyreactivity
19,QVQLVESGGGLVQAGGSLRLSCAASGRIFAYYLMGCYRQAPGKEREFVAAISWSGGRTYYADSVKGRFTISRDNAKNTVYLQMNSLKPEDTAVYYCNAGRPLWLAYGMDYWGQGTQVTVSS,low polyreactivity
20,QVQLVESGGGLVQAGGSLRLSCAASGSTFTLYAMGWYRQAPGTERELVAAISWSGDTTYYADSVKGRFTISRDNAKNTVYLQMNILKPEDTAVYYCAADWYNSYYYEHESWGQGTQVTVSS,high polyreactivity
21,QVQLVESGGGLVQAGGSLSLICAASGFIFYYYAMGWYRQAPGKERELVAGMSRRGGSTYYADSVKGRFTISRDNAKNTVYLQMNSLKPEDTAVYYCAALGDDATSYGYWGQGTQVTVSS,high polyreactivity
